Sequences and labels used below:
B1: Beta-adrenergic receptor kinase 1 (Homo sapiens), P25098 (parent)
chain: MADLEAVLADVSYLMAMEKSKATPAARASKKILLPEPSIRSVMQKYLEDRGEVTFEKIFSQKLGYLLFRDFCLNHLEEARPLVEFYEEIKKYEKLETEEERVARSREIFDSYIMKELLACSHPFSKSATEHVQGHLGKKQVPPDLFQPYIEEICQNLRGDVFQKFIESDKFTRFCQWKNVELNIHLTMNDFSVHRIIGRGGFGEVYGCRKADTGKMYAMKCLDKKRIKMKQGETLALNERIMLSLVSTGDCPFIVCMSYAFHTPDKLSFILDLMNGGDLHYHLSQHGVFSEADMRFYAAEIILGLEHMHNRFVVYRDLKPANILLDEHGHVRISDLGLACDFSKKKPHASVGTHGYMAPEVLQKGVAYDSSADWFSLGCMLFKLLRGHSPFRQHKTKDKHEIDRMTLTMAVELPDSFSPELRSLLEGLLQRDVNRRLGCLGRGAQEVKESPFFRSLDWQMVFLQKYPPPLIPPRGEVNAADAFDIGSFDEEDTKGIKLLDSDQELYRNFPLTISERWQQEVAETVFDTINAETDRLEARKKAKNKQLGHEEDYALGKDCIMHGYMSKMGNPFLTQWQRRYFYLFPNRLEWRGEGEAPQSLLTMEEIQSVEETQIKERKCLLLKIRGGKQFILQCDSDPELVQWKKELRDAYREAQQLVQRVPKMKNKPRSPVVELSKVPLVQRGSANGL

In this test the parent is B1. Particulars: with ubc_human UBC.
In the case of K30R, the “effect of a mutation on the interaction” value is on record as “decreasing interaction”. To K19R belongs “decreasing interaction”. Consider K31R, for which the “effect of a mutation on the interaction” value is “decreasing interaction”.

(Values after IntAct's records for PubMed 17006543.)
